The target in data set [1] is recombinant human wild-type FVa (UniProt P12259). As to the kind of experiment: cell-based or functional assay.
The target in data set [2] is ^superFVa (recombinant super factor five, thrombin-activated) (human) (UniProt P12259). As to the kind of experiment: cell-based or functional assay.
In data set [3] the target is recombinant human wild-type FVa (UniProt P12259).
The subject of data set [4] is ^superFVa (recombinant super factor five, thrombin-activated).

^superFVa (recombinant super factor five, thrombin-activated), sequence (chain, as listed by the source): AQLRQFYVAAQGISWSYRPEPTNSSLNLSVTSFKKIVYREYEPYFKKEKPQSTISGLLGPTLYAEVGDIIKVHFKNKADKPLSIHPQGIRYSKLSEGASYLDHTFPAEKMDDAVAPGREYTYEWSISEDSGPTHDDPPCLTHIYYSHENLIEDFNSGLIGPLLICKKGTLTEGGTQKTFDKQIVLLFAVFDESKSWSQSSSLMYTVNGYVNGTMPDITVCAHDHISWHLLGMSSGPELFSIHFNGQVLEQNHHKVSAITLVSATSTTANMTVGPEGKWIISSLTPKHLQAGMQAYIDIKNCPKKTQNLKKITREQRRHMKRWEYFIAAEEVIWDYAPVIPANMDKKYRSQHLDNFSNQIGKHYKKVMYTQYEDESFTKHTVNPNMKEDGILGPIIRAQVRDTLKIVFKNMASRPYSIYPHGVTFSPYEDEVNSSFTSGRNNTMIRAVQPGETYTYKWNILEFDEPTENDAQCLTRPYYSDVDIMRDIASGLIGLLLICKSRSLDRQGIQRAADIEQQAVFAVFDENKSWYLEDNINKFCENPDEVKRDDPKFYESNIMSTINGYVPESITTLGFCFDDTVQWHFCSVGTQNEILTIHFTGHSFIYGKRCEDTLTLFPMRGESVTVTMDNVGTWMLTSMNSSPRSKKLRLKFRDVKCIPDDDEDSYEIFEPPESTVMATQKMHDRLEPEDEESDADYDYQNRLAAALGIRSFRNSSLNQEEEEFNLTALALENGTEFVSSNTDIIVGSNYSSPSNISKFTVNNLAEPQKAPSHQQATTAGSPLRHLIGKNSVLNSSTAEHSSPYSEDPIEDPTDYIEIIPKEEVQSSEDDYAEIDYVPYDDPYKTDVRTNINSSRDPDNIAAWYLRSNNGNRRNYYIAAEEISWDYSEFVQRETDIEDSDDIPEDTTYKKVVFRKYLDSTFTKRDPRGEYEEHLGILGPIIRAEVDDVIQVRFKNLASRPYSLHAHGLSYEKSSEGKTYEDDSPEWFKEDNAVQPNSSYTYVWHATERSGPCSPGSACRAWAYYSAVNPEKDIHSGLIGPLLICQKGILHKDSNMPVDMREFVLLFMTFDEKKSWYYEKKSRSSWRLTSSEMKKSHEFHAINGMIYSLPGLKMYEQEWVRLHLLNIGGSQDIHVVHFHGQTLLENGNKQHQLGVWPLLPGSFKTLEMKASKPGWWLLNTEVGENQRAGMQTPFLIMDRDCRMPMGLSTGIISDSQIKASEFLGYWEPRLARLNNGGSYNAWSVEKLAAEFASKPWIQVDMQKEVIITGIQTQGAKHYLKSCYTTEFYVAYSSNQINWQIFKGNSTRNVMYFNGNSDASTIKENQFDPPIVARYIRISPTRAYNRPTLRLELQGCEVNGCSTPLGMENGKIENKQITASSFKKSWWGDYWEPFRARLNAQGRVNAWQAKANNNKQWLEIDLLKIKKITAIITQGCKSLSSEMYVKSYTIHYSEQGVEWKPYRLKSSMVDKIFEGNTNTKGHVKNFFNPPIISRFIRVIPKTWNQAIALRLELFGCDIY

As to “recombinant murine Activated Protein C (from UniProt P33587 42-460) (enzyme)”, the ex vivo whole blood aPTT after intravenous APC (0.5 mg/kg) in Balb/c mice in data set [1] worked out at 50 s; in data set [2] it was 30 s.

Consider “recombinant human Activated Protein C (Xigris)”, for which, in data set [3], the “ETP restored in human or murine plasma in the presence of APC” value is reported as “at concentrations where FVa did not show effects”, the “aPTT in human plasma with APC at 0.05 U/mL FVa variant” value was “FVa shortened the aPTT only from ˜100 to 80 seconds” and the “aPTT in murine plasma with human APC at 5 U/mL FVa variant” value is on record as “FVa shortened the aPTT only from ˜100 to 70 seconds”. For the same substance, in data set [4], the “ETP restored in human or murine plasma in the presence of APC” value is given as “Only ^superFVa restored ETP to ˜90-100% in human or murine plasma at concentrations where FVa did not show effects”; the “aPTT in human plasma with APC at 0.05 U/mL FVa variant” value is “At 0.05 U/mL FVa variants, ^superFVa fully corrected the aPTT”; the “aPTT in murine plasma with human APC at 5 U/mL FVa variant” value is “At 5 U/mL FVa variants ^superFVa fully corrected the aPTT”; the “aPTT normalisation in human plasma with 10 nM APC, concentration relative to FVa” value was “in human plasma ^superFVa normalized the aPTT at 100-fold lower concentrations compared to FVa”.

For the origin of these results see patent US20160289299A1.
